Data on 94 variants can be found in the supplement of paper PMC10567573.

To fix the notation:
B1: ANKRD17 (parent)
chain: EVLRRLTSSVSCALDEAAAALTRM
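Also: lentivirally expressed fusions sorted by FACS into six bins by GFP to DsRed ratio, PSI derived from sequencing read proportions per bin multiplied by bin number.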

Variants of B1 are the subject of this series. The series can be described thus: protein stability index of a GFP-peptide fusion (GPS, HEK-293T) (PSI 1-6); higher = more stable. Conditions: c terminus: a fixed tail appended.
For EVLRRLTSSVSCALDEAAAARTRM [L21R], the protein stability index came to 5.02. Consider EVLRRLTSSVSCALDEAAAAITRM [L21I], for which the protein stability index is 1.93. Then EVLRRLTSSVSCALDEAAAAMTRM [L21M], with 1.5. For the variant EVLRRLTSSVSCALDEAAAADTRM [L21D], the protein stability index worked out at 1.53. The result for EVLRRLTSSVICALDEAAAALTRM [S11I] reads 2.1. Then EVLRRLTSSVECALDEAAAALTRM [S11E], with 1.92; and EVLRRLTSSVFCALDEAAAALTRM [S11F], with 1.12. The result for EVLRRLTSSVNCALDEAAAALTRM [S11N] reads 2.65. In the case of EVLRRLTSSVACALDEAAAALTRM [S11A], the protein stability index worked out at 1.43. Then EVLRRLTSSVTCALDEAAAALTRM [S11T], with 2.42. Consider EVLRRLTSSVPCALDEAAAALTRM [S11P], for which the protein stability index was 2.79. As for EVLRRLTSSVVCALDEAAAALTRM [S11V], the protein stability index came to 1.35.

As to EVLRRLTSSVGCALDEAAAALTRM [S11G], the protein stability index worked out at 1.03. In the case of EVLRRLTSSVQCALDEAAAALTRM [S11Q], the protein stability index was 1.18. As to EVLRRLTSSVMCALDEAAAALTRM [S11M], the protein stability index amounted to 2.22. The result for EVLRRLTSSVDCALDEAAAALTRM [S11D] reads 2.18. The result for EVLRRLTSSVYCALDEAAAALTRM [S11Y] reads 2.26. With EVLRRLTSSVSCALHEAAAALTRM [D15H], the protein stability index was determined as 1.97. On to EVLRRLTSSVSCALAEAAAALTRM [D15A], for which the protein stability index is 1.35.

Take EVLRRLTSSVSCALMEAAAALTRM [D15M]: the protein stability index was found to be 3.36. Turning to EVLRRLTSSVSCALQEAAAALTRM [D15Q], the protein stability index worked out at 1.87. As for EVLRRLTSSVSCALNEAAAALTRM [D15N], the protein stability index was found to be 3.18.

For EVLRRLTSSVSCALEEAAAALTRM [D15E], the protein stability index came out at 2.2. Regarding EVLRRLTSSVSCALREAAAALTRM [D15R], the protein stability index worked out at 1.85. EVLRRLTSSVSCALCEAAAALTRM [D15C]: the protein stability index was 1.99. Regarding EVLRRLTSSVSCALPEAAAALTRM [D15P], the protein stability index is 2.37. The result for EVLRRLTSSVSCALGEAAAALTRM [D15G] reads 1.26; that for EVLRRLTSSVSCALDEALAALTRM [A18L], 1.68; that for EVLRRLTSSVSCALDEAYAALTRM [A18Y], 1.69. With EVLRRLTSSVSCALDEAGAALTRM [A18G], the protein stability index came out at 1.85. With EVLRRLTSSVSCALDEAMAALTRM [A18M], the protein stability index is 2.25.

Take EVLRRLTSSVSCALDEAHAALTRM [A18H]: the protein stability index was 1.68. As to EVLRRLTSSVSCALDEAEAALTRM [A18E], the protein stability index was found to be 1.24. As for EVLRRLTSSVSCALDEAQAALTRM [A18Q], the protein stability index amounted to 2.4. Take EVLRRLTSSVSCALDEAIAALTRM [A18I]: the protein stability index was 2.33. Take EVLRRLTSSVSCALDEARAALTRM [A18R]: the protein stability index came out at 2.43. Then EVLRRLTSSVSCALDEADAALTRM [A18D], with 1.89.

Regarding EVLRRLTSSVSCALDEAWAALTRM [A18W], the protein stability index turned out to be 1.64. With EVLRRLTSSVSCALDEAPAALTRM [A18P], the protein stability index was 2.72. Regarding EVLRRLTSSVSCALDEAFAALTRM [A18F], the protein stability index is 1.94. Then EVLRRLTSSVSCALDEANAALTRM [A18N], with 1.8; and EVLRRLTSSVSCALDEATAALTRM [A18T], with 2.27. As for EVLRRLTSSVSCALDEAVAALTRM [A18V], the protein stability index was 1.8. The result for EVLRRLTSSVSCALDEAKAALTRM [A18K] reads 2.92; that for EVLRRLTSSVSCALDEAANALTRM [A19N], 2.55.

For the variant EVLRRLTSSVSCALDEAAYALTRM [A19Y], the protein stability index was 2.92. EVLRRLTSSVSCALDEAASALTRM [A19S]: the protein stability index worked out at 2.16.

EVLRRLTSSVSCALDEAAVALTRM [A19V]: the protein stability index was determined as 2.99. As to EVLRRLTSSVSCALDEAAFALTRM [A19F], the protein stability index was 3.41. Regarding EVLRRLTSSVSCALDEAAPALTRM [A19P], the protein stability index worked out at 2.25.

Take EVLRRLTSSVSCALDEAAGALTRM [A19G]: the protein stability index amounted to 2.3. With EVLRRLTSSVSCALDEAATALTRM [A19T], the protein stability index amounted to 2.29. In the case of EVLRRLTSSVSCALDEAAKALTRM [A19K], the protein stability index turned out to be 2.6. The result for EVLRRLTSSVSCALDEAAEALTRM [A19E] reads 2.12. As for EVLRRLTSSVSCALDEAAHALTRM [A19H], the protein stability index turned out to be 1.78.

For EVLRRLTSSVSCALDEAADALTRM [A19D], the protein stability index was 1.83. As to EVLRRLTSSVSCALDEAALALTRM [A19L], the protein stability index was 2.35. The result for EVLRRLTSSVSCALDEAAIALTRM [A19I] reads 1.88; that for EVLRRLTSSVSCALDEAAAALYRM [T22Y], 1.85. As for EVLRRLTSSVSCALDEAAAALKRM [T22K], the protein stability index was 1.86. For EVLRRLTSSVSCALDEAAAALMRM [T22M], the protein stability index is 2.39. Regarding EVLRRLTSSVSCALDEAAAALFRM [T22F], the protein stability index was found to be 2.21.

Turning to EVLRRLTSSVSCALDEAAAALERM [T22E], the protein stability index worked out at 2.06.

Take EVLRRLTSSVSCALDEAAAALARM [T22A]: the protein stability index is 1.94. Regarding EVLRRLTSSVSCALDEAAAALWRM [T22W], the protein stability index came to 1.46. With EVLRRLTSSVSCALDEAAAALVRM [T22V], the protein stability index came to 1.24.

As to EVLRRLTSSVSCALDEAAAALRRM [T22R], the protein stability index worked out at 1.31.

Regarding EVLRRLTSSVSCALDEAAAALCRM [T22C], the protein stability index was 2.1.

Regarding EVLRRLTSSVSCALDEAAAALNRM [T22N], the protein stability index is 1.93.

In the case of EVLRRLTSSVSCALDEAAAALIRM [T22I], the protein stability index came out at 2.36. As for EVLRRLTSSVSCALDEAAAALHRM [T22H], the protein stability index was 3.03.

Consider EVLRRLTSSVSCALDEAAAALPRM [T22P], for which the protein stability index was determined as 2.33. In the case of EVLRRLTSSVSCALDEAAAALQRM [T22Q], the protein stability index was found to be 3. Then EVLRRLTSSVSCALDEAAAALDRM [T22D], with 2.22; and EVLRRLTSSVSCALDEAAAALTGM [R23G], with 2.35; and EVLRRLTSSVSCALDEAAAALTAM [R23A], with 2.91. Then EVLRRLTSSVSCALDEAAAALTEM [R23E], with 2.64. As for EVLRRLTSSVSCALDEAAAALTFM [R23F], the protein stability index was found to be 4.05. As for EVLRRLTSSVSCALDEAAAALTDM [R23D], the protein stability index is 2.8. Consider EVLRRLTSSVSCALDEAAALLTRM [A20L], for which the protein stability index came out at 1.45. For EVLRRLTSSVSCALDEAAAFLTRM [A20F], the protein stability index was determined as 1.65.

For the variant EVLRRLTSSVSCALDEAAAMLTRM [A20M], the protein stability index worked out at 2.28.

Turning to EVLRRLTSSVSCALDEAAADLTRM [A20D], the protein stability index was 1.65. For EVLRRLTSSVSCALDEAAAHLTRM [A20H], the protein stability index is 1.52.

In the case of EVLRRLTSSVSCALDEAAAKLTRM [A20K], the protein stability index was found to be 2.69. Turning to EVLRRLTSSVSCALDEAAANLTRM [A20N], the protein stability index stood at 3.01. EVLRRLTSSVSCALDEAAACLTRM [A20C]: the protein stability index amounted to 2.73.

EVLRRLTSSVSCALDEAAAYLTRM [A20Y]: the protein stability index is 3.13. Turning to EVLRRLTSSVSCALDEAAARLTRM [A20R], the protein stability index was 2.64. Regarding EVLRRLTSSVSCALDEAAAILTRM [A20I], the protein stability index was determined as 2.52. Take EVLRRLTSSVSCALDEAAAWLTRM [A20W]: the protein stability index was 2.48.

As for EVLRRLTSSVSCALDEAAAVLTRM [A20V], the protein stability index came to 1.91. Then EVLRRLTSSVSCALDEAAAQLTRM [A20Q], with 3.08; and EVLRRLTSSVSCALDEAAAELTRM [A20E], with 3.31.
